# Experimental data taken from article PMC2172130.
# Biological target: tomosyn (expressed in Sf9 cells) (UniProt Q9WU70)
# Test: far-Western, overlay or dot blot
# Chain of UniProt Q9WU70 (Q9WU70 whole entry): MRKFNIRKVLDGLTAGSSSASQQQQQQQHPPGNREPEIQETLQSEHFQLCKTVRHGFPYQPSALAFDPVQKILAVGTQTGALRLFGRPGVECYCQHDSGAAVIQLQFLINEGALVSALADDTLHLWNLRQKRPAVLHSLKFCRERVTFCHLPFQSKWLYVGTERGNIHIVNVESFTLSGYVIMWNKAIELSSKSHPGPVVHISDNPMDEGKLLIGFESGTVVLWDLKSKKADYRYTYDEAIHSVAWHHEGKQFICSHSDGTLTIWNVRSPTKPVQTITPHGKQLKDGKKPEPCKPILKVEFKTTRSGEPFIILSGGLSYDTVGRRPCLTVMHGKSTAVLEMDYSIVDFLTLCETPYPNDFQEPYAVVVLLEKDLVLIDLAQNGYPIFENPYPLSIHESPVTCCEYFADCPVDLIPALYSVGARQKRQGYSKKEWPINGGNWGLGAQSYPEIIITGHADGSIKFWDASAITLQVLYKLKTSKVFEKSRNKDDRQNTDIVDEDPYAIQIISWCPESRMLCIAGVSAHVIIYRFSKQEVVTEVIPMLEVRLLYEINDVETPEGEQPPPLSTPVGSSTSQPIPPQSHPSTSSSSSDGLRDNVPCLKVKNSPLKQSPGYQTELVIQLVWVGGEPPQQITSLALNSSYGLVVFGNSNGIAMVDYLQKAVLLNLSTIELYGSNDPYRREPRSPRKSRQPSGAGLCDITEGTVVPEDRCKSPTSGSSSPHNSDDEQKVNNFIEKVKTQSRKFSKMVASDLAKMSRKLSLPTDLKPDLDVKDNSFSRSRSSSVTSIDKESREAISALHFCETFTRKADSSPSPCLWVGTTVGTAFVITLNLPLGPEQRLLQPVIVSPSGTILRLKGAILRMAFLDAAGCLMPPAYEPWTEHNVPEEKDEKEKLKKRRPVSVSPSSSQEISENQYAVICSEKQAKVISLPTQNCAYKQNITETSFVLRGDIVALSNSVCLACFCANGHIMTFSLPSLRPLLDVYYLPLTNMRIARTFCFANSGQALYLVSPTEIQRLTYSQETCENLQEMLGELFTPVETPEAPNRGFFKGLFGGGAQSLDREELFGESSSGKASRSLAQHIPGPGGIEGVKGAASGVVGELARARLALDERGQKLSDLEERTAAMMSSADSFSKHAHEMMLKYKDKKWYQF
substance,measurement,value
"syntaxin-1, nonphosphorylated form (recombinant) (from UniProt P32851 1-288) (natural protein)",Kd,120 nM
